Results from patent publication US20140186363A1 (UNIVERSITY OF ZURICH, published 2014).

T1: MAGEA3 peptide no 1
T1 construct: also called MAGEA3 aa 1-20
T1 peptide: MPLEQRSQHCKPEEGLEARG

T2: MAGEA3 peptide no 10
T2 construct: also called MAGEA3 aa 91-110
T2 peptide: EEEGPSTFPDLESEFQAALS

T3: MAGEA3 peptide no 11
T3 construct: also called MAGEA3 aa 101-120
T3 peptide: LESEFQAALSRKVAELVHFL

T4: MAGEA3 peptide no 12
T4 construct: also called MAGEA3 aa 111-130
T4 peptide: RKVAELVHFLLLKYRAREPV

T5: MAGEA3 peptide no 13
T5 construct: also called MAGEA3 aa 121-140
T5 peptide: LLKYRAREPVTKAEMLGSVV

T6: MAGEA3 peptide no 14
T6 construct: also called MAGEA3 aa 131-150
T6 peptide: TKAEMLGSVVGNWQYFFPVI

T7: MAGEA3 peptide no 16
T7 construct: also called MAGEA3 aa 151-170
T7 peptide: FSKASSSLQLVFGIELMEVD

T8: MAGEA3 peptide no 17
T8 construct: also called MAGEA3 aa 161-180
T8 peptide: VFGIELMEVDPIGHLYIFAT

T9: MAGEA3 peptide no 19
T9 construct: also called MAGEA3 aa 181-200
T9 peptide: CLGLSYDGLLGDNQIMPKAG

T10: MAGEA3 peptide no 2
T10 construct: also called MAGEA3 aa 11-30
T10 peptide: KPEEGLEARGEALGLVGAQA

T11: MAGEA3 peptide no 20
T11 construct: also called MAGEA3 aa 191-210
T11 peptide: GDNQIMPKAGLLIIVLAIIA

T12: MAGEA3 peptide no 23
T12 construct: also called MAGEA3 aa 221-240
T12 peptide: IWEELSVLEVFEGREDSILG

T13: MAGEA3 peptide no 25
T13 construct: also called MAGEA3 aa 241-260
T13 peptide: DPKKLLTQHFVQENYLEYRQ

T14: MAGEA3 peptide no 26
T14 construct: also called MAGEA3 aa 251-270
T14 peptide: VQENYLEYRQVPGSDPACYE

T15: MAGEA3 peptide no 27
T15 construct: also called MAGEA3 aa 261-280
T15 peptide: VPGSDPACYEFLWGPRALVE

T16: MAGEA3 peptide no 28
T16 construct: also called MAGEA3 aa 271-290
T16 peptide: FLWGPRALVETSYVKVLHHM

T17: MAGEA3 peptide no 29
T17 construct: also called MAGEA3 aa 281-300
T17 peptide: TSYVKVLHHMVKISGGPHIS

T18: MAGEA3 peptide no 3
T18 construct: also called MAGEA3 aa 21-40
T18 peptide: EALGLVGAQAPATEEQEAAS

T19: MAGEA3 peptide no 30
T19 construct: also called MAGEA3 aa 291-310
T19 peptide: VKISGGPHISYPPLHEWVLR

T20: MAGEA3 peptide no 31
T20 construct: also called MAGEA3 aa 295-314
T20 peptide: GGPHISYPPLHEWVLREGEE

T21: MAGEA3 peptide no 4
T21 construct: also called MAGEA3 aa 31-50
T21 peptide: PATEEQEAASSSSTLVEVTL

T22: MAGEA4 (UniProt P43358 1-317, limits assumed)
T22 construct: also called recombinant MAGEA4-protein; CT1.4
T22 sequence (looked up): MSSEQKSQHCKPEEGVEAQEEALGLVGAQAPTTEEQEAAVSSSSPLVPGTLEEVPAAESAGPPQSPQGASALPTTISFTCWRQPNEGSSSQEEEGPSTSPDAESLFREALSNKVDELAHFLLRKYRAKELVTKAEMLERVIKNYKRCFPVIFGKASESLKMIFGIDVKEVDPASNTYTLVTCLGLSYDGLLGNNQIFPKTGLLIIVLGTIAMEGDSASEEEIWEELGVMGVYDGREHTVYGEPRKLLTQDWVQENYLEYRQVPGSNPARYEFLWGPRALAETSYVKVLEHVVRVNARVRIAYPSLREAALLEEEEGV


What was measured:
MAGEA3 peptide no 1 = molecular target: T1, MAGEA3 peptide no 1; assay: peptide ELISA (coated 20mer) [Figure 1]
Procedure: (§1) 20mer peptides spanning the entire MAGEA3 protein with 10 aa overlaps shared by each adjacent peptide (Peptides&Elephants, Nuthetal, Germany) were used to coat Maxisorp ELISA plates (Nunc, Rochester, N.Y.). As control a 20mer peptide representing amino acids 40-21 from the NY-ESO-1 protein was used (rev). The numbering of amino acids of MAGEA3 is based on SEQ ID No:41.
(§2) Human recombinant antibody was used at a concentration of 1 μg/ml. Bound human antibody was detected using horseradish peroxidase-conjugated goat anti-human IgG Fc-gamma specific antibodies (Jackson ImmunoResearch, Europe Ltd., Cambridgeshire, UK).

MAGEA3 peptide no 10 = molecular target: T2, MAGEA3 peptide no 10; assay: peptide ELISA (coated 20mer) [Figure 1]
Procedure: as §1, §2

MAGEA3 peptide no 11 = molecular target: T3, MAGEA3 peptide no 11; assay: peptide ELISA (coated 20mer) [Figure 1]
Procedure: as §1, §2

MAGEA3 peptide no 12 = molecular target: T4, MAGEA3 peptide no 12; assay: peptide ELISA (coated 20mer) [Figure 1]
Procedure: as §1, §2

MAGEA3 peptide no 13 = molecular target: T5, MAGEA3 peptide no 13; assay: peptide ELISA (coated 20mer) [Figure 1]
Procedure: as §1, §2

MAGEA3 peptide no 14 = molecular target: T6, MAGEA3 peptide no 14; assay: peptide ELISA (coated 20mer) [Figure 1]
Procedure: as §1, §2

MAGEA3 peptide no 16 = molecular target: T7, MAGEA3 peptide no 16; assay: peptide ELISA (coated 20mer) [Figure 1]
Procedure: as §1, §2

MAGEA3 peptide no 17 = molecular target: T8, MAGEA3 peptide no 17; assay: peptide ELISA (coated 20mer) [Figure 1]
Procedure: as §1, §2

MAGEA3 peptide no 19 = molecular target: T9, MAGEA3 peptide no 19; assay: peptide ELISA (coated 20mer) [Figure 1]
Procedure: as §1, §2

MAGEA3 peptide no 2 = molecular target: T10, MAGEA3 peptide no 2; assay: peptide ELISA (coated 20mer) [Figure 1]
Procedure: as §1, §2

MAGEA3 peptide no 20 = molecular target: T11, MAGEA3 peptide no 20; assay: peptide ELISA (coated 20mer) [Figure 1]
Procedure: as §1, §2

MAGEA3 peptide no 23 = molecular target: T12, MAGEA3 peptide no 23; assay: peptide ELISA (coated 20mer) [Figure 1]
Procedure: as §1, §2

MAGEA3 peptide no 25 = molecular target: T13, MAGEA3 peptide no 25; assay: peptide ELISA (coated 20mer) [Figure 1]
Procedure: as §1, §2

MAGEA3 peptide no 26 = molecular target: T14, MAGEA3 peptide no 26; assay: peptide ELISA (coated 20mer) [Figure 1]
Procedure: as §1, §2

MAGEA3 peptide no 27 = molecular target: T15, MAGEA3 peptide no 27; assay: peptide ELISA (coated 20mer) [Figure 1]
Procedure: as §1, §2

MAGEA3 peptide no 28 = molecular target: T16, MAGEA3 peptide no 28; assay: peptide ELISA (coated 20mer) [Figure 1]
Procedure: as §1, §2

MAGEA3 peptide no 29 = molecular target: T17, MAGEA3 peptide no 29; assay: peptide ELISA (coated 20mer) [Figure 1]
Procedure: as §1, §2

MAGEA3 peptide no 3 = molecular target: T18, MAGEA3 peptide no 3; assay: peptide ELISA (coated 20mer) [Figure 1]
Procedure: as §1, §2

MAGEA3 peptide no 30 = molecular target: T19, MAGEA3 peptide no 30; assay: peptide ELISA (coated 20mer) [Figure 1]
Procedure: as §1, §2

MAGEA3 peptide no 31 = molecular target: T20, MAGEA3 peptide no 31; assay: peptide ELISA (coated 20mer) [Figure 1]
Procedure: as §1, §2

MAGEA3 peptide no 4 = molecular target: T21, MAGEA3 peptide no 4; assay: peptide ELISA (coated 20mer) [Figure 1]
Procedure: as §1, §2

MAGEA4 = molecular target: T22, MAGEA4; assay: Western blot of recombinant protein, anti-human IgG-HRP
Procedure: Recombinant MAGEA3- and recombinant MAGEA4-protein were separated in SDS-PAGE and blotted onto membranes. Membranes were incubated with human antibodies 122G3 or 32H2. Binding of human antibodies to proteins on the membrane was evaluated using an HRP-labeled goat anti human IgG (Jackson Immunoresearch, Milan Analytica AG, Rheinfelden, Switzerland). The results are depicted in FIG. 3.

Row | Binder | binding result (MAGEA3 peptide no 1) | binding result (MAGEA3 peptide no 10) | binding result (MAGEA3 peptide no 11) | binding result (MAGEA3 peptide no 12) | binding result (MAGEA3 peptide no 13) | binding result (MAGEA3 peptide no 14) | binding result (MAGEA3 peptide no 16) | binding result (MAGEA3 peptide no 17) | binding result (MAGEA3 peptide no 19) | binding result (MAGEA3 peptide no 2) | binding result (MAGEA3 peptide no 20) | binding result (MAGEA3 peptide no 23) | binding result (MAGEA3 peptide no 25) | binding result (MAGEA3 peptide no 26) | binding result (MAGEA3 peptide no 27) | binding result (MAGEA3 peptide no 28) | binding result (MAGEA3 peptide no 29) | binding result (MAGEA3 peptide no 3) | binding result (MAGEA3 peptide no 30) | binding result (MAGEA4) | further results
1 | 34G9 (antibody, V domains shown, Patient-derived human antibody made recombinantly; also called human monoclonal antibody 34G9) VH: EVQLEESGGDLVQPGGSLRLSCAASGFTFSHYWMHWVRQAPGKGLVWVSRINSDGSSTSYADSVKGRFTISRDNAKNTLYLQMNSLRAEDTAVYYCARIGSDGYNYDFWGQGTLVTVSS VL: not shown | no binding (tested: 1 µg/ml) | no binding (tested: 1 µg/ml) | no binding (tested: 1 µg/ml) | no binding (tested: 1 µg/ml) | no binding (tested: 1 µg/ml) | no binding (tested: 1 µg/ml) | no binding (tested: 1 µg/ml) | no binding (tested: 1 µg/ml) | no binding (tested: 1 µg/ml) | no binding (tested: 1 µg/ml) | no binding (tested: 1 µg/ml) | no binding (tested: 1 µg/ml) | no binding (tested: 1 µg/ml) | no binding (tested: 1 µg/ml) | no binding (tested: 1 µg/ml) | no binding (tested: 1 µg/ml) | no binding (tested: 1 µg/ml) | no binding (tested: 1 µg/ml) | no binding (tested: 1 µg/ml) | no binding | binding result (MAGEA3 peptide no 31): no binding (tested: 1 µg/ml); binding result (MAGEA3 peptide no 4): no binding (tested: 1 µg/ml)
2 | 32H2 (antibody, V domains shown, Patient-derived human antibody made recombinantly; also called human monoclonal antibody 32H2) VH: QVQLVESGGGVVQPGRSLRLSCAASGFTFSSNAMHWVRQAPGKGLEWVAVISHDGSNKYYADSVKGRFTISRDNSKNTLYLQMNSLRAEDTAVYYCARDGSGSYFNLDYWGQGTLVTVSS VL: QSALTQPASVSGSPGQSITISCTGTSSDVGGYNYVSWYQQHPGKAPKLMIYEVSNRPSGVSNRFSGSKSGNTASLTISGLQAEDEADYYCSSYTSSSTLVFGTGTKVTVL |  |  |  |  |  |  |  |  |  |  |  |  |  |  |  |  |  |  |  | no binding | 
3 | 102G10 (antibody, V domains shown, Patient-derived human antibody made recombinantly; also called human monoclonal antibody 102G10) VH: EVQLVESGGGLVKPGGSLRLSCAASGFTFSGNSMNWVRQAPGKGLEWVSSISSSSGYIYYADSVKGRFTVSRDNAKNSLYLQMNSLRAEDTAVYYCATWPVTTARVGYWGQGTLVTVSS VL: QSVLTQPPSASGTPGQRVTISCSGSSSNIGSNYVYWHQQLPGTAPKLLIYRHDQRPSGVPDRFSGSKSGTSASLAISGLRSEDEADYYCAAWDDSLSAWVFGGGTKLTVL | no binding (tested: 1 µg/ml) | no binding (tested: 1 µg/ml) | no binding (tested: 1 µg/ml) | no binding (tested: 1 µg/ml) | no binding (tested: 1 µg/ml) | no binding (tested: 1 µg/ml) | no binding (tested: 1 µg/ml) | no binding (tested: 1 µg/ml) | no binding (tested: 1 µg/ml) | no binding (tested: 1 µg/ml) | no binding (tested: 1 µg/ml) | no binding (tested: 1 µg/ml) | no binding (tested: 1 µg/ml) | no binding (tested: 1 µg/ml) | no binding (tested: 1 µg/ml) | no binding (tested: 1 µg/ml) | no binding (tested: 1 µg/ml) | no binding (tested: 1 µg/ml) | no binding (tested: 1 µg/ml) | no binding | binding result (MAGEA3 peptide no 31): no binding (tested: 1 µg/ml); binding result (MAGEA3 peptide no 4): no binding (tested: 1 µg/ml)
